Results taken from publication PMC4297517 (Journal of molecular biology, 2014).

Target: ClpB_(E279A,E678A) (E. coli, UniProt P63284 1-857, E279A | E678A)
Assay: fluorescence polarisation

| Binder | binding result |
| --- | --- |
| DnaK_(py-N282A*) (natural protein, N-(1-pyrene)maleimide label (K106C introduced for labeling); degree of labeling between 0.1 and 0.5) not shown | binds |
| DnaK_(py-Q57A*) (natural protein, N-(1-pyrene)maleimide label (K106C introduced for labeling); degree of labeling between 0.1 and 0.5) not shown | binds |
